In patent US8703143:

Key:
[1] = molecular target: large isoform of tenascin-C (UniProt P24821); test: ELISA on coated antigen, background subtracted
[2] = molecular target: human plasma fibronectin (human) (UniProt P02751); test: ELISA on coated antigen, background subtracted

large isoform of tenascin-C, sequence (P24821 23-2201): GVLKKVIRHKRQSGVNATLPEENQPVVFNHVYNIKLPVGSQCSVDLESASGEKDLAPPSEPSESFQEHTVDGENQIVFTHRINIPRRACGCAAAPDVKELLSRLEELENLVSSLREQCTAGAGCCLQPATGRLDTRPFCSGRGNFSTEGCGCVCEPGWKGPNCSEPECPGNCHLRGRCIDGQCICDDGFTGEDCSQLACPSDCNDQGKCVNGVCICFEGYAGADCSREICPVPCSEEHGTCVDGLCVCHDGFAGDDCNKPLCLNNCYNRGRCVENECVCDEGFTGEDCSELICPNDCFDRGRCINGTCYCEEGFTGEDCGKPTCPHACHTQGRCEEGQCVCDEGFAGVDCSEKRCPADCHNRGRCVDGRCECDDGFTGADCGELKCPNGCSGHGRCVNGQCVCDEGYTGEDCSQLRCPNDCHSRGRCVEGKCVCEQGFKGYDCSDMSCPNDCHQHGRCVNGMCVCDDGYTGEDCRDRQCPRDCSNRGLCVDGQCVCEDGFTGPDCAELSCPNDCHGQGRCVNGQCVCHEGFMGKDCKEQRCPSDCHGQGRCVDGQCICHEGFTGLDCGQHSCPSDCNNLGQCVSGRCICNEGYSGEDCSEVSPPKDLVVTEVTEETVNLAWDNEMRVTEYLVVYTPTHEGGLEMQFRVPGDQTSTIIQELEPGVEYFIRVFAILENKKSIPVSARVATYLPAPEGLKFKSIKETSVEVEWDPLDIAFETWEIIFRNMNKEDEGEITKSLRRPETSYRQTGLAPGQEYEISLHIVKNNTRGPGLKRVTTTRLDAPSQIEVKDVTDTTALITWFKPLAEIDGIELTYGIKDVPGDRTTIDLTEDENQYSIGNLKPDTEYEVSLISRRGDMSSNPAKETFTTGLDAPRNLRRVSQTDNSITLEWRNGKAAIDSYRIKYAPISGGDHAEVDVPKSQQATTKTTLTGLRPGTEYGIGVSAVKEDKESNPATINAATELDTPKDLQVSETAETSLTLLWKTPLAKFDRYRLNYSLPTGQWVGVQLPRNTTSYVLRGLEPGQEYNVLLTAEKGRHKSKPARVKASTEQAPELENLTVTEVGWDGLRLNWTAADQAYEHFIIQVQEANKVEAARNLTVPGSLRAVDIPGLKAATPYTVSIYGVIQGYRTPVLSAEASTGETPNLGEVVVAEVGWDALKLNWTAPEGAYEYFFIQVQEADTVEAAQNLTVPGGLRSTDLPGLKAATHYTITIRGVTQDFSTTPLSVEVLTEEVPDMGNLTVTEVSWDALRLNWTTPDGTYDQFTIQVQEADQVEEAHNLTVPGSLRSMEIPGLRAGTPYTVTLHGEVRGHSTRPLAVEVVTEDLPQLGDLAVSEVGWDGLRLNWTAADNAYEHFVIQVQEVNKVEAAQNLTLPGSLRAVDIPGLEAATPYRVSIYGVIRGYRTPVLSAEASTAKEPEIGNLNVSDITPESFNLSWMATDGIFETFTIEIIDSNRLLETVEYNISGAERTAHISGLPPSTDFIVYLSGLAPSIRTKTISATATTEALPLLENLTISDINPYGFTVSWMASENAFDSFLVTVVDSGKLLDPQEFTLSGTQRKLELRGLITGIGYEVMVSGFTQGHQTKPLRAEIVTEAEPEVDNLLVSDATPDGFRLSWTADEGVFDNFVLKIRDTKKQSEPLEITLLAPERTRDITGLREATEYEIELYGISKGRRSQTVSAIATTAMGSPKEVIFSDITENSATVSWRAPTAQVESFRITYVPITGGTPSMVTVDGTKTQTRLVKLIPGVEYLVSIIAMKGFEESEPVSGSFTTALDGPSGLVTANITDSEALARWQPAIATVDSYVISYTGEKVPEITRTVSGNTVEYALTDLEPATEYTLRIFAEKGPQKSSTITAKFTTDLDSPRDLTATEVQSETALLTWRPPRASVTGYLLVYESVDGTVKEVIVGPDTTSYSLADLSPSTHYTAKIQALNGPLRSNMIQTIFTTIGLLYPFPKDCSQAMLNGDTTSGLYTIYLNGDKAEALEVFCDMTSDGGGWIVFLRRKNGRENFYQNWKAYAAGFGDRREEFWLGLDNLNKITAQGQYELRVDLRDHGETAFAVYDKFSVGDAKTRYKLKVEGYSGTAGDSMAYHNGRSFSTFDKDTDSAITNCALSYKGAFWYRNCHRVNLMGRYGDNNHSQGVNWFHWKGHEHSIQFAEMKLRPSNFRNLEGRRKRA

OD at 405 nm [1]: 0.01 OD 405 nm
OD at 405 nm [2]: 0.07 OD 405 nm
B1: scFv CGS-1 (scFv, V domains shown)
VH: QVQLVESGGGLVQPGGSLRLSCAVSGFTFSSYAMSWVRQAPGKGLEWVSAISGSGGSTYYADSVKGRFTISRDNSKNTLYLQMNSLRAEDTAVYYCARSLPKWGQGTLVTVSR
VL: SSELTQDPAVSVALGQTVRITCQGDSLRSYYASWYQQKPGQAPVLVTYGKNNRPSGIPDRFSGSSSGNTASLTITGAQAEDEADYYCNSSPVVLNGVVFGGGTKLTVL
